{"source": "patent US20160193296A1", "about": "“METHODS FOR TREATMENT OF MICROCEPHALY ASSOCIATED AUTISM DISORDERS” (BROWN UNIVERSITY, priority 2012, published 2016)", "molecules": {"B1": {"name": "BDNF: secreted protein, member of the neurotrophin family of growth factors; binds to the TrkB receptors (protein)", "chain": "HSDPARRGELSVCDSISEWVTAADKKTAVDMSGGTVTVLEKVPVSKGQLKQYFYETKCNPMGYTKEGCRGIDKRHWNSQCRTTQSYVRALTMDSKKRIGWRFIRIDTSCVCTLTIKRGR"}}, "key": {"[1]": {"test_system": "NHE6 mutant hippocampal neurons", "test": "Axonal and dendritic branching of cultured hippocampal neurons with exogenous BDNF", "type": "cell-based, mouse", "method": "(§1) Hippocampi were dissected from P0-P1 mice, dissociated with papain (20 units/ml) in Earle's Balanced Salt Solution (EBSS) with bicarbonate at 37° C. for 30 min and triturated with a 1 ml pipette. Hippocampal neurons were placed on 8-well chamber slides coated with 1 mg/ml poly-D-lysine at a cell density of 3×10^5 cells/ml. For neuronal morphology, neurons at 1 DIV were transfected with EGFP constructs or together with testing constructs at a ratio of 1:1 using Lipofectamine 2000 (Invitrogen) according to manufacturer guidelines. For LysoTracker experiments, GFP transfected neurons at 5 DIV were incubated with 100 nM Lysotracker Red DND-99 at 37° C. for 30 min. After washing with PBS for 3 times, cells were imaged live or cells were fixed with 4% paraformaldehyde for 15 min and Z-series images were obtained under a Zeiss LSM710 confocal laser scanning microscope.\nImages of cultured hippocampal neurons (2 DIV) were captured from randomly chosen fields on a Zeiss LSM710 confocal laser scanning microscope, blinded to genotypes, and traced using Metamorph Neurite Outgrowth software. The number of processes (i.e., neurites emanating directly from the cell body) per cell, the total number and total cumulative length of all neurite branches per cell and the length of the longest neurite per cell were determined. Z-series images of individual GFP-filled neurons at 5 DIV were obtained on a Carl Zeiss 710 confocal microscope and traced manually using Neurolucida software. Quantification of the branch number and total length of axons and dendrites per cell was done on images acquired with 20× objective. Quantitative analysis for LysoTracker red labeled endosomes was performed by using Neurolucida in images acquired with 63× objective. LysoTracker red puncta that completely overlapped with GFP-labeled dendrites or axons were scored as co-localized endosomes. Each experiment was performed on at least three different batches of cultured neurons.\nTaken together our data support a model wherein due to loss of NHE6 there is an abnormal acidification of early endosomes resulting in impoverished branching as a result of decreases in BDNF/TrkB signaling. Given this model, we predicted that exogenous and high levels of BDNF may rescue the branching defects through enhancing TrkB signaling. To investigate the ability of exogenous BDNF to interact and improve the cellular phenotype seen, we added BDNF (50 ng/ml) to wild-type and mutant cultures at 2 DIV and examined cultures on day 5 for effects on axonal and dendritic branching associated with NHE6 mutation. […] We saw effects on both branching as well as an increase in the number of primary dendrites. […]"}, "[2]": {"test_system": "TrkB receptor", "test": "Western blot of TrkB receptor and phospho-Trk levels after BDNF in hippocampal cultures at 4 DIV", "type": "cell-based, mouse", "settings": "for TrkB receptor level normalized to time of BDNF administration: 50 ng/ml BDNF for 30 min", "method": "as §1\nNext, we examined directly the levels of TrkB receptor in response to signaling. TrkB is well-known to be endocytosed upon binding BDNF and a significant degree of signaling has been proposed to occur within signaling endosomes upon endocytosis. […] To test this hypothesis, we examined TrkB receptor levels and phospho-Trk levels in response to BDNF signaling in NHE6 mutant and wild type hippocampal cultures at 4 DIV."}, "[3]": {"settings": "NHE6 mutant neurons, BDNF 50 ng/ml added at 2 DIV, examined on day 5"}}, "data": [{"molecule": "B1", "values": [{"measurement": "rescue of branching defects (in words)", "setting": "[1]; NHE6 mutant cells, BDNF 50 ng/ml, 2 DIV to day 5", "result": "increased both axonal and dendritic branching in mutant cells to a level approaching wild-type levels"}, {"measurement": "axonal branching", "setting": "[1]; [3]", "result": "27.7+/−2.0 branch points per cell"}, {"measurement": "dendritic branching", "setting": "[1]; [3]", "result": "34.4+/−2.4 branches per cell"}, {"measurement": "primary dendrites", "setting": "[1]; [3]", "result": "8.7+/−0.4 dendrites"}, {"measurement": "TrkB receptor level normalized to time of BDNF administration", "setting": "[2]; NHE6 mutant neurons", "result": "0.79+/−0.04"}, {"measurement": "TrkB receptor level in mutant neurons as % of the control", "setting": "[2]; mutant/WT, 50 ng/ml BDNF, 30 min", "result": 76.5, "unit": "%"}, {"measurement": "TrkB receptor level in mutant neurons as % of wild type", "setting": "[2]; mutant/WT, 50 ng/ml BDNF, 60 min", "result": 73.3, "unit": "%"}, {"measurement": "TrkB receptor level in mutant neurons as % of wild type", "setting": "[2]; mutant/WT, 50 ng/ml BDNF, 2 h", "result": 74.9, "unit": "%"}, {"measurement": "induction of phospho-Trk in mutant compared to control", "setting": "[2]; mutant/WT, after adding BDNF, throughout the whole treatment duration", "result": "approximately 48%"}, {"measurement": "TrkB receptor level normalized to time of BDNF administration", "setting": "[2]; wild type neurons", "result": "1.03+/−0.06"}]}]}
